Assay [1] concerns the target low-affinity CD16 (CD16lo). Briefly: flow cytometry, CD16lo bound to sample on Ramos cells, goat anti-mouse-PE; sample 0.011 ug/ml. For orientation: In flow cytometry, cells or beads pass a laser one at a time.
Assay [2] has as its target low-affinity CD16 (CD16lo). Briefly: flow cytometry, CD16lo bound to sample on Ramos cells, goat anti-mouse-PE; sample 0.3 ug/ml.
The target of assay [3] is low-affinity CD16 (CD16lo). The assay can be described thus: flow cytometry, CD16lo bound to sample on Ramos cells, goat anti-mouse-PE; sample 8 ug/ml.
Sequence of low-affinity CD16 (CD16lo) (P08637 17-208): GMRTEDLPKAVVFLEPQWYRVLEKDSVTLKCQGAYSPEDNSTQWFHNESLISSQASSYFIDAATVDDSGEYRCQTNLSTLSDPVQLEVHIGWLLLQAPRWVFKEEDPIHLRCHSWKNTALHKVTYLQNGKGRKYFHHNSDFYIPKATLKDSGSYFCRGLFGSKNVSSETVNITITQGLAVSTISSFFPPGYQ
The target in assay [4] is low-affinity CD16 (CD16lo). The assay can be described thus: flow cytometry, CD16lo bound to sample on Ramos cells, goat anti-mouse-PE; sample 0.033 ug/ml.
Assay [5] concerns the target low-affinity CD16 (CD16lo). The assay can be described thus: flow cytometry, CD16lo bound to sample on Ramos cells, goat anti-mouse-PE; sample 0.1 ug/ml.
For assay [6], the target named is low-affinity CD16 (CD16lo). The assay can be described thus: flow cytometry, CD16lo bound to sample on Ramos cells, goat anti-mouse-PE; sample 24 ug/ml.
Assay [7] addresses low-affinity CD16 (CD16lo). Briefly: flow cytometry, CD16lo bound to sample on Ramos cells, goat anti-mouse-PE; sample 0.89 ug/ml.
In assay [8] the target is low-affinity CD16 (CD16lo). Briefly: flow cytometry, CD16lo bound to sample on Ramos cells, goat anti-mouse-PE; sample 2.67 ug/ml.
Another assay addresses T1, CD20 (UniProt P11836 1-297, limits assumed).
T1 construct: whole, on cells; also called CD20 on Wil2-S cells
T1 sequence (looked up): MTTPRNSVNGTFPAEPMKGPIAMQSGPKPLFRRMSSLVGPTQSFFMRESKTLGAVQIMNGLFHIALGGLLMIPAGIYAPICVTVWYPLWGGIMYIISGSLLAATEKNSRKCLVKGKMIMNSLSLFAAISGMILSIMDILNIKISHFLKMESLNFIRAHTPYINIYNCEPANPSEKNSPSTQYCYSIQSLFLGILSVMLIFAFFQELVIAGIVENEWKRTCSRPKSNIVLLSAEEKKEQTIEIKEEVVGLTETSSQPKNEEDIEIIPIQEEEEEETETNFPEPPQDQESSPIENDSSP
The assay can be described thus: flow cytometry on Wil2-S B-cells, PE goat anti-human IgG. As to the method:
For the Wil2-S B-cell binding study, 100 ug/ml of PIMS was used. […] Binding was detected using a goat anti-human IgG (gamma specific) conjugated to phycoerythrin (PE) (Jackson Immunoresearch # 109-116-098) at 1:100 dilution in FACS buffer. Results were analyzed by one-color flow cytometry on a FACsCalibur using CellQuest software. In addition to assessing the binding of anti-CD20 PIMS to WIL2-S cells, the binding of anti-CD20 SMIPs to Wil2-S cells expressing CD20 on their surface was also assessed.

As for TRU-016 (an anti-CD37 SMIP) (Fc fusion), the Geo MFI is 7.41 in assay [1]; 143 in [2]; 228 in assay [3]; 21.8 in [4]; 57.5 in assay [5]; 158 in assay [6]. The Geo MFI in [7] came to 214; in assay [8] it was 229.

B1: 2Lm20-4HL12 (an HL anti-CD20 SMIP with a 12-amino-acid gly4ser linker) (Fc fusion)
chain: QVQLVQSGAESKKPGASVKVSCKASGYTFTSYNMHWVRQAPGQGLEWMGAIYPGNGDTSYNQKFKGRVTMTRDTSTSTVYMELSSLRSEDTAVYYCARSYYSNSYWYFDLWGRGTLVTVSSGGGGSGGGGSASEIVLTQSPATLSLSPGERATLSCRASSSVSYIVWYQQKPGQAPRLLIYAPSNLASGIPARFSGSGSGTDFTLTISSLEPEDFAVYYCQQWSFNPPTFGQGTKVEIK
notes: also called DNE078; not shown: The hinge and CH2CH3 of this SMIP are not specified
Consider B1, for which, in the assay with CD20, the binding result is recorded as “binds”.

B2: 2Lm20-4HL17 (an HL anti-CD20 SMIP with a 17-amino-acid gly4ser linker) (Fc fusion)
chain: QVQLVQSGAESKKPGASVKVSCKASGYTFTSYNMHWVRQAPGQGLEWMGAIYPGNGDTSYNQKFKGRVTMTRDTSTSTVYMELSSLRSEDTAVYYCARSYYSNSYWYFDLWGRGTLVTVSSGGGGSGGGGSGGGGSASEIVLTQSPATLSLSPGERATLSCRASSSVSYIVWYQQKPGQAPRLLIYAPSNLASGIPARFSGSGSGTDFTLTISSLEPEDFAVYYCQQWSFNPPTFGQGTKVEIK
notes: also called DNE079; not shown: The hinge and CH2CH3 of this SMIP are not specified
In the case of B2, in the assay with CD20, the binding result is recorded as “binds”.
